# Like-named read-outs stand apart in the source and are kept apart here.
# T1: GST-CDKACTH1 labelled with Cy3 (CDKACTH1-Cy3)
# T1 chain: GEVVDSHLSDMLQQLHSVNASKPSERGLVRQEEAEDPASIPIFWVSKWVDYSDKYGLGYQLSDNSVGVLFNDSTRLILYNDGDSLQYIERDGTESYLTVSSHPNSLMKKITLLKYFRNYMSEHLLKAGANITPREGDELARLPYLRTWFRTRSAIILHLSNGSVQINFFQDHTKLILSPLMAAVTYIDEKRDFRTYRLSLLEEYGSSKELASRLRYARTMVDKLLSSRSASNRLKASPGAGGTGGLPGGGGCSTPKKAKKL
# B1: Plk3 kinase (protein)
# chain: MEPAAGFLSPRPFQRAAAAPAPPAGPGPPPSALRGPELEMLAGLPTSDPGRLITDPRSGRTYLKGRLLGKGGFARCYEATDTETGSAYAVKVIPQSRVAKPHQREKILNEIELHRDLQHRHIVRFSHHFEDADNIYIFLELCSRKSLAHIWKARHTLLEPEVRYYLRQILSGLKYLHQRGILHRDLKLGNFFITENMELKVGDFGLAARLEPPEQRKKTICGTPNYVAPEVLLRQGHGPEADVWSLGCVMYTLLCGSPPFETADLKETYRCIKQVHYTLPASLSLPARQLLAAILRASPRDRPSIDQILRHDFFTKGYTPDRLPISSCVTVPDLTPPNPARSLFAKVTKSLFGRKKKSKNHAQERDEVSGLVSGLMRTSVGHQDARPEAPAASGPAPVSLVETAPEDSSPRGTLASSGDGFEEGLTVATVVESALCALRNCIAFMPPAEQNPAPLAQPEPLVWVSKWVDYSNKFGFGYQLSSRRVAVLFNDGTHMALSANRKTVHYNPTSTKHFSFSVGAVPRALQPQLGILRYFASYMEQHLMKGGDLPSVEEVEVPAPPLLLQWVKTDQALLMLFSDGTVQVNFYGDHTKLILSGWEPLLVTFVARNRSACTYLASHLRQLGCSPDLRQRLRYALRLLRDRSPA
# B2: recombinant CDK4/Cyclin D (enzyme, part only; not given: Cyclin D partner)
# chain: MATSRYEPVAEIGVGAYGTVYKARDPHSGHFVALKSVRVPNGGGGGGGLPISTVREVALLRRLEAFEHPNVVRLMDVCATSRTDREIKVTLVFEHVDQDLRTYLDKAPPPGLPAETIKDLMRQFLRGLDFLHANCIVHRDLKPENILVTSGGTVKLADFGLARIYSYQMALTPVVVTLWYRAPEVLLQSTYATPVDMWSVGCIFAEMFRRKPLFCGNSEADQLGKIFDLIGLPPEDDWPRDVSLPRGAFPPRGPRPVQSVVPEMEESGAQLLLEMLTFNPHKRISAFRALQHSYLHKDEGNPE
# Tests used:
# [1] = biological target: T1, GST-CDKACTH1 labelled with Cy3 …
# [2] = tested on: GST-CDKACTH1 labelled with Cy3 (CDKACTH1-Cy3); remark: listed apart in the source
Protein,real-time fluorescence kinase assay (Cy3 fluorescence) [1],real-time fluorescence kinase assay (Cy3 fluorescence) [2]
B1,"Plk1 or Plk3 did not induce any significant changes in the fluorescence of CDKACTH1, in the same range of concentrations",–
B2,–,CDK4/Cyclin D kinase induced changes in CDKACTH1 fluorescence reminiscent of CDK2/Cyclin A

# Source: patent US20150355179
